Laboratory results as given in the supplement of paper PMC10065799, “High-throughput profiling of sequence recognition by tyrosine kinases and SH2 domains using bacterial peptide display” (eLife, 2023).

Key:
Grb2 SH2 = Grb2 SH2 (UniProt P62993); experiment: SH2 binding enrichment of the phosphorylated peptide, bacterial display (enrichment ratio); higher = better substrate or ligand; peptides without Tyr show the background
SHP2-C SH2 = experiment: as above
c-Src SH2 = experiment: as above
MERTK = MERTK (UniProt Q12866); experiment: phosphorylation enrichment, bacterial display (enrichment ratio); higher = better substrate or ligand; peptides without Tyr show the background
FGFR1 = FGFR1 (UniProt P11362); experiment: as above
c-Src = experiment: as above
Jak2 = Jak2 (UniProt O60674); experiment: as above
Fes = Fes (UniProt P07332); experiment: as above
FGFR3 = FGFR3 (UniProt P22607); experiment: as above
Hck = Hck (UniProt P08631); experiment: as above
AncSZ = experiment: as above
EPHB1 = EPHB1 (UniProt P54762); experiment: as above
Fyn = Fyn (UniProt P06241); experiment: as above
c-Abl (mouse) = experiment: as above
Fer (mouse) = experiment: as above
EPHB2 = EPHB2 (UniProt P29323); experiment: as above
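For SH2 binding enrichment of the phosphorylated peptide, bacterial display in this document: peptide library displayed on the E. coli surface as eCPX fusions, selected cells deep-sequenced, score is each peptide's frequency after selection divided by its frequency in the input.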
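For phosphorylation enrichment, bacterial display in this document: 11-residue human phosphosite peptides and single-mutation variants displayed on the E. coli surface, counted by deep sequencing, each peptide's frequency after selection divided by its frequency in the unselected input library; frequency after pTyr selection over input frequency; kinase dosed for 20-30% of maximal phosphorylation in three min.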

Sequence of Hck (P08631 whole entry, looked up): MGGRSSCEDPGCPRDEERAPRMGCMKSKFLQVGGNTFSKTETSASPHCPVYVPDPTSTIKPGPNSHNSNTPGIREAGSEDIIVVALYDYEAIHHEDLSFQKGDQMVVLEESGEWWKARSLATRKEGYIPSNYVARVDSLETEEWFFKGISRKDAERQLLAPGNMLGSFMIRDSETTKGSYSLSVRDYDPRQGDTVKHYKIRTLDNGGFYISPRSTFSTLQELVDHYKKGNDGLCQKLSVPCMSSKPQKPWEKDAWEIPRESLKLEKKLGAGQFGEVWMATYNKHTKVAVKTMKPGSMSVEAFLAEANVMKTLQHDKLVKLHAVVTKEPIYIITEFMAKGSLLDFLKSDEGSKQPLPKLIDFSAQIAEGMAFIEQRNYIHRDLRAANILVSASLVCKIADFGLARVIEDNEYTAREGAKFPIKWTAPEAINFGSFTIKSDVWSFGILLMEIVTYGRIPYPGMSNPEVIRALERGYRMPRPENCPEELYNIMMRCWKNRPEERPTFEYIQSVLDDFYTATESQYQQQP
Sequence of EPHB1 (P54762 whole entry, looked up): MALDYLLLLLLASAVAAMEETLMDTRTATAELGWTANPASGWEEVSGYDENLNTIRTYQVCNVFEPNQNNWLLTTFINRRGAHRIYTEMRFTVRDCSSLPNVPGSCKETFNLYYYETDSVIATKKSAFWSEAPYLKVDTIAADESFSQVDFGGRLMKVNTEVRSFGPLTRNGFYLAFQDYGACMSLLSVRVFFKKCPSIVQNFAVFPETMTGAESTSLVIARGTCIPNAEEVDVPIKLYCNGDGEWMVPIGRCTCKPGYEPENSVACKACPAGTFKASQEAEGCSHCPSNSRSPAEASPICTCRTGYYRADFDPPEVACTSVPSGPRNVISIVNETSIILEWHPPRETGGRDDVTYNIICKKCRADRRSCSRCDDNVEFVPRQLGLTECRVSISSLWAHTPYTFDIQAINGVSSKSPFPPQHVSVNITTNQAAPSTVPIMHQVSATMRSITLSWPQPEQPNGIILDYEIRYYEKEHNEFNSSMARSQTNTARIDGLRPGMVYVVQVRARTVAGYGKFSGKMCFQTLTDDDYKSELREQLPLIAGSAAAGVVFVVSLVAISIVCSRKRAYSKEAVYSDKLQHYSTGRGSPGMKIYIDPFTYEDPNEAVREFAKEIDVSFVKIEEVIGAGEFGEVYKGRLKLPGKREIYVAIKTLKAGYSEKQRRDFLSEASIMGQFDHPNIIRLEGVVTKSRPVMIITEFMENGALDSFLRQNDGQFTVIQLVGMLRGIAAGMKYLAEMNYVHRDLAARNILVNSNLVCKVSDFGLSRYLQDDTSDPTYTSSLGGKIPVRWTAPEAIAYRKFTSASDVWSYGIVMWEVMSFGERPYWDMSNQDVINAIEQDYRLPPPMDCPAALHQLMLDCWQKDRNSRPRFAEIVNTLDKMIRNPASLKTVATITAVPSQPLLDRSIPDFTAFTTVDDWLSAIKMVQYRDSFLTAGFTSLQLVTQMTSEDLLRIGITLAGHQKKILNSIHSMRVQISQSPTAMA
Sequence of EPHB2 (P29323 whole entry, looked up, the tested form may be a part): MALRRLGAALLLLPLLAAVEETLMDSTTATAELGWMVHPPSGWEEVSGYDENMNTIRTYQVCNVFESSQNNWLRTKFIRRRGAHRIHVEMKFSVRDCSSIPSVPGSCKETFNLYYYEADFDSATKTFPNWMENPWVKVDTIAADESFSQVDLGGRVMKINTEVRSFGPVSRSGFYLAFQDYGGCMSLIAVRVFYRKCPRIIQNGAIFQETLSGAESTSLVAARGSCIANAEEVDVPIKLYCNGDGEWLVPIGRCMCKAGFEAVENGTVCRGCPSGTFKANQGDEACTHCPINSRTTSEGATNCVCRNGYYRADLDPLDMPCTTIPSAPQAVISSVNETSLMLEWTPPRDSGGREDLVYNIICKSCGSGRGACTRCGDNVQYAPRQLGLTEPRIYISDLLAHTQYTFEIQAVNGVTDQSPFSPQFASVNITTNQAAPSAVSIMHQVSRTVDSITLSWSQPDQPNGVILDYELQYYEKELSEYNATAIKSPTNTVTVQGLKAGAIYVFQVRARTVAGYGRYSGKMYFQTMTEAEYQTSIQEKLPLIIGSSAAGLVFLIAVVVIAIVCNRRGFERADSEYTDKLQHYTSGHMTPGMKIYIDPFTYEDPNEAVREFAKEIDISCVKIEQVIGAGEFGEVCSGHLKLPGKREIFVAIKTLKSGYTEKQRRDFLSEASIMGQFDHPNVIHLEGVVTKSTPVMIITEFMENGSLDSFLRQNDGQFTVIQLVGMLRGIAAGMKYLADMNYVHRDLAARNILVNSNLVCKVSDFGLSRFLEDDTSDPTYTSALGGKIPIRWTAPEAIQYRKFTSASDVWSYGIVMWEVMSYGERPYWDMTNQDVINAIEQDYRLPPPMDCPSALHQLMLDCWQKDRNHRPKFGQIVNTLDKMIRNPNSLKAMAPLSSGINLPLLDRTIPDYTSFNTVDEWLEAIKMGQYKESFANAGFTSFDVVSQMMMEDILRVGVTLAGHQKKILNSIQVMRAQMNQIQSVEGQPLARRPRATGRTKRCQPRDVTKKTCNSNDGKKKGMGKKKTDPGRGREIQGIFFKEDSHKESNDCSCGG
Sequence of Fyn (P06241 whole entry, looked up): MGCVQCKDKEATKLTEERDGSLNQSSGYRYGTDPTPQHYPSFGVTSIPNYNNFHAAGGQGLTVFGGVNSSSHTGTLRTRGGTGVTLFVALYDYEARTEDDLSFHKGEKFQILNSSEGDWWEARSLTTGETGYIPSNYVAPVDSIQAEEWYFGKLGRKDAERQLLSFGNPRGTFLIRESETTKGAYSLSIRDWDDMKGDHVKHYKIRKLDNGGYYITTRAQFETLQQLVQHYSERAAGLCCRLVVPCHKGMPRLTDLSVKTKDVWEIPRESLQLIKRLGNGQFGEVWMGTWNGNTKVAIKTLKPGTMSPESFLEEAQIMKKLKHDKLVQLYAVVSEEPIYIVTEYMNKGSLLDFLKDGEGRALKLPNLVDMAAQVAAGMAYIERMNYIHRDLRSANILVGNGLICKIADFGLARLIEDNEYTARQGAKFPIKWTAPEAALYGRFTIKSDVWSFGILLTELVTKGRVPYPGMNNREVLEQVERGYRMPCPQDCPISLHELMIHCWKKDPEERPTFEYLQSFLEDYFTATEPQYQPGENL
Sequence of Jak2 (O60674 whole entry, looked up): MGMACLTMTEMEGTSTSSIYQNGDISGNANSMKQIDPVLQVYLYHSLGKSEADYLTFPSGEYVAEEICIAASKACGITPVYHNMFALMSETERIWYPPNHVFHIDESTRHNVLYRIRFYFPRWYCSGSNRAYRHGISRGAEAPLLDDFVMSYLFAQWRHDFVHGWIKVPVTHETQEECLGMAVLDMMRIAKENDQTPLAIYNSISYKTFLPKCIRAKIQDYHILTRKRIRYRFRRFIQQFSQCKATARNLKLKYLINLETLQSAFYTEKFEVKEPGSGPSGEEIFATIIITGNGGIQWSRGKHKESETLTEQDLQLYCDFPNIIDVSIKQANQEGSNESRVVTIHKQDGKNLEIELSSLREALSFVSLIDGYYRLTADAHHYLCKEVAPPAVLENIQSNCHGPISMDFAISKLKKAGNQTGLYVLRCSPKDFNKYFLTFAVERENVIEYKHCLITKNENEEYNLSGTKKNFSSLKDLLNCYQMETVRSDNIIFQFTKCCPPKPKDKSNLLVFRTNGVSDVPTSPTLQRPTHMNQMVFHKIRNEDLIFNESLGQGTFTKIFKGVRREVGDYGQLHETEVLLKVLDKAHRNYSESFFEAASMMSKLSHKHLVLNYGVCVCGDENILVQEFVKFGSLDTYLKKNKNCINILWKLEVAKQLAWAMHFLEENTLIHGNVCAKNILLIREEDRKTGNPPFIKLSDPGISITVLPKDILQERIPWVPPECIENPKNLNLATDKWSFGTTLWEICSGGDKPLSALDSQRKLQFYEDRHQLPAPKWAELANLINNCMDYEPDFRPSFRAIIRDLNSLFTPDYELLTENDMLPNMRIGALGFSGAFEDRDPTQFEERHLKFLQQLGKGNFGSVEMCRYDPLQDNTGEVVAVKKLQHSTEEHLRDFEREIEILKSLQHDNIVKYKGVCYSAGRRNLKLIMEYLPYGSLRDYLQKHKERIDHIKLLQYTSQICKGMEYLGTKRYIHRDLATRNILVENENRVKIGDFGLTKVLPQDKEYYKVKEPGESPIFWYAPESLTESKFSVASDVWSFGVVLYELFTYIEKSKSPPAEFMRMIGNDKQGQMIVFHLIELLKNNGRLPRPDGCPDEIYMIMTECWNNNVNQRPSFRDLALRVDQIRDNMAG
Sequence of FGFR3 (P22607 whole entry, looked up): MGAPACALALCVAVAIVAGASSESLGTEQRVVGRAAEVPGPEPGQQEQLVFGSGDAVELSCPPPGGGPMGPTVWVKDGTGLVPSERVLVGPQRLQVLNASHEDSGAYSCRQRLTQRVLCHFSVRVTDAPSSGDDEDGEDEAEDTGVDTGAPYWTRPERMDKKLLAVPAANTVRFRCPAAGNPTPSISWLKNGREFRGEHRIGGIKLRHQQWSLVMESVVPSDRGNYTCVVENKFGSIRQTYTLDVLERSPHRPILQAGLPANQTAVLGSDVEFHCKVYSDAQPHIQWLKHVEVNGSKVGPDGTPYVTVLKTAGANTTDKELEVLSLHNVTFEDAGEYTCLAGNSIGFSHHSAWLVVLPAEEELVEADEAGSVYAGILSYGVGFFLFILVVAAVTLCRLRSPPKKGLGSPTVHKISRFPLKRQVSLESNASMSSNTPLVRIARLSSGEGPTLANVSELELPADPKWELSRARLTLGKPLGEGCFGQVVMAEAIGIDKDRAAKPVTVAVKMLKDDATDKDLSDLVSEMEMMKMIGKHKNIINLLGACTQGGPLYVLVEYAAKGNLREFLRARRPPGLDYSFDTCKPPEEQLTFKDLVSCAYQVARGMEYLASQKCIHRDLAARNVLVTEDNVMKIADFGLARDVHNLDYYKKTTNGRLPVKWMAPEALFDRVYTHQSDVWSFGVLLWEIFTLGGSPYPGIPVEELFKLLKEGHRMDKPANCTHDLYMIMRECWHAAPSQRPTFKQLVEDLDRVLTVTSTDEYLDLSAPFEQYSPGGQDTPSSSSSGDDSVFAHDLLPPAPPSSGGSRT

| SH2 binding enrichment (Grb2 SH2) | SH2 binding enrichment (SHP2-C SH2) | SH2 binding enrichment (c-Src SH2) | Sequence | phosphorylation enrichment (MERTK) | phosphorylation enrichment (FGFR1) | phosphorylation enrichment (c-Src) | phosphorylation enrichment (Jak2) | phosphorylation enrichment (Fes) | phosphorylation enrichment (FGFR3) | phosphorylation enrichment (Hck) | phosphorylation enrichment (AncSZ) | phosphorylation enrichment (EPHB1) | phosphorylation enrichment (Fyn) | phosphorylation enrichment (c-Abl (mouse)) | phosphorylation enrichment (Fer (mouse)) | phosphorylation enrichment (EPHB2) |
| --- | --- | --- | --- | --- | --- | --- | --- | --- | --- | --- | --- | --- | --- | --- | --- | --- |
| 0.935 | 1.02 | 0.597 | LKGQVYILGLE [ASS1_Y359_R363L] | 0.518 | 0.467 | 0.633 | 1.23 | 1.99 | 0.961 | 0.985 | 1.37 | 0.971 | 0.49 | 0.759 | 0.664 | 0.658 |
| 1.37 | 1.26 | 1.31 | LLILEYAKYGS [RET_Y806_V804L] | 0.392 | 0.547 | 0.764 | 1.5 | 1.27 | 0.869 | 0.486 | 1.32 | 0.773 | 0.587 | 1.02 | 0.58 | 0.649 |
| 1.67 | 1.99 | 1.23 | LMVFEYMRHGD [NTRK1_Y591] | 0.426 | 0.5 | 0.34 | 1 | 1.08 | 0.756 | 0.931 | 0.845 | 0.646 | 0.604 | 0.457 | 0.614 | 0.847 |
| 0.937 | 0.88 | 0.657 | LNWIFYKDQTG [RS1_Y166_YF] | 0.468 | 0.27 | 0.567 | 1.29 | 1.72 | 0.932 | 0.239 | 0.977 | 0.611 | 0.48 | 0.843 | 0.54 | 0.306 |
| 0.671 | 0.55 | 0.397 | LRRREYQRQDF [PRKRIP1_Y90_YF] | 0.7 | 0.699 | 0.977 | 0.836 | 0.679 | 0.561 | 0.572 | 0.603 | 0.549 | 0.539 | 0.777 | 0.563 | 0.559 |
| 0.985 | 0.648 | 0.542 | LSVEIYDRREF [ITGB7_Y753_YF] | 0.522 | 0.498 | 1.01 | 0.958 | 1.25 | 0.824 | 2.83 | 1.26 | 0.428 | 0.946 | 0.569 | 0.595 | 0.483 |
| 2.68 | 0.585 | 0.49 | LTFDEYRNISQ [ANXA3_Y216] | 0.498 | 1.23 | 0.643 | 1.58 | 1.93 | 1.49 | 1.08 | 1.82 | 1.01 | 0.854 | 1.13 | 1.08 | 0.782 |
| 0.744 | 0.64 | 0.823 | LTTEAYEWEPR [ELMOD3_Y61] | 0.724 | 1.08 | 1.31 | 1.16 | 1.89 | 1.06 | 0.943 | 1.69 | 1.11 | 1.1 | 0.831 | 1.07 | 1.24 |
| 1.15 | 1.15 | 0.698 | LVMFIDAIFGM [SCN1A_Y1684_Y1684D] | 1.1 | 1.07 | 0.91 | 1.79 | 3.65 | 2.33 | 1.38 | 2.28 | 2 | 1.13 | 1.74 | 1.63 | 1.67 |
| 2.05 | 1.49 | 1.1 | LVMFIYVIFGM [SCN1A_Y1684_A1685V] | 0.365 | 0.583 | 0.275 | 0.477 | 0.673 | 0.604 | 0.571 | 0.694 | 0.496 | 0.517 | 0.468 | 0.366 | 0.615 |
| 0.86 | 0.589 | 0.817 | LYIDSYEKDVA [PGM1_Y521] | 0.717 | 0.895 | 0.69 | 1.24 | 1.5 | 1.14 | 0.659 | 1.81 | 0.816 | 0.77 | 0.45 | 0.798 | 1.15 |
| 0.853 | 0.881 | 1.93 | MAFDRYAAICS [OR8H2_Y123_H120Y_YF] | 0.889 | 0.548 | 0.576 | 1.2 | 1.3 | 0.641 | 0.76 | 1.15 | 0.893 | 0.479 | 0.95 | 0.597 | 0.998 |

Second part, the sequence before the results:

| Sequence | SH2 binding enrichment (Grb2 SH2) | SH2 binding enrichment (SHP2-C SH2) | SH2 binding enrichment (c-Src SH2) | phosphorylation enrichment (MERTK) | phosphorylation enrichment (FGFR1) | phosphorylation enrichment (c-Src) | phosphorylation enrichment (Jak2) | phosphorylation enrichment (Fes) | phosphorylation enrichment (FGFR3) | phosphorylation enrichment (Hck) | phosphorylation enrichment (AncSZ) | phosphorylation enrichment (EPHB1) | phosphorylation enrichment (Fyn) | phosphorylation enrichment (c-Abl (mouse)) | phosphorylation enrichment (Fer (mouse)) | phosphorylation enrichment (EPHB2) |
| --- | --- | --- | --- | --- | --- | --- | --- | --- | --- | --- | --- | --- | --- | --- | --- | --- |
| LKLKAYRFSIS [LCT_Y974_V971L] | 0.673 | 0.763 | 0.502 | 1.15 | 0.845 | 1.55 | 2.76 | 1.96 | 1.21 | 0.882 | 1.76 | 0.883 | 0.746 | 2.51 | 1.26 | 0.948 |
| LLQEWYMIISR [HUWE1_Y4066_R4063Q] | 1.08 | 1.09 | 0.623 | 1.1 | 1.04 | 1.25 | 3.08 | 2.39 | 2.45 | 1.1 | 2.05 | 2.11 | 0.766 | 1.81 | 0.821 | 0.921 |
| LLREWYLPDPF [SIX3_Y225_Q227P_YF] | 1.3 | 1.06 | 0.863 | 0.583 | 1.25 | 0.747 | 1.4 | 2.2 | 1.36 | 0.791 | 2.26 | 1.22 | 1.11 | 1.13 | 0.871 | 0.711 |
| LLSISYVGCSL [ADGRD1_Y571_S567L] | 0.96 | 0.571 | 0.54 | 0.761 | 1.1 | 0.69 | 1.77 | 2.03 | 1.43 | 0.824 | 1.48 | 0.888 | 0.98 | 1.45 | 1.01 | 0.823 |
| LPEENYQVLRF [ARHGAP1_Y365] | 1.53 | 0.784 | 0.548 | 0.802 | 2.81 | 1.32 | 1.44 | 1.39 | 2.17 | 2.82 | 1.43 | 4.13 | 0.768 | 1.18 | 2.13 | 1.41 |
| LQLLGYRPVYS [CHST6_Y358] | 1.02 | 0.962 | 0.783 | 0.426 | 0.718 | 0.559 | 0.979 | 1.24 | 0.91 | 0.581 | 1.29 | 0.954 | 0.916 | 0.911 | 0.49 | 0.873 |
| LREKVYVSLEA [RXRA_Y397_A398V] | 0.774 | 0.94 | 1.06 | 0.568 | 0.837 | 1.36 | 0.723 | 0.794 | 0.737 | 0.61 | 0.64 | 0.456 | 1.36 | 0.542 | 0.44 | 0.501 |
| LSCLAYSGKDA [FXN_Y205_S202C] | 0.719 | 0.626 | 0.537 | 0.558 | 0.495 | 0.665 | 1.24 | 1.44 | 0.976 | 0.527 | 1.23 | 0.844 | 0.52 | 1.15 | 0.525 | 0.643 |
| LSRDVYEEDSY [RET_Y900] | 0.652 | 0.726 | 0.978 | 0.699 | 0.656 | 0.719 | 1.55 | 1.39 | 0.968 | 0.771 | 1.39 | 0.535 | 0.503 | 0.906 | 0.416 | 0.685 |
| LSSLAYSGKDA [FXN_Y205] | 0.683 | 0.885 | 0.59 | 0.307 | 0.66 | 0.47 | 0.75 | 0.703 | 0.671 | 0.579 | 0.859 | 0.819 | 0.809 | 0.85 | 0.615 | 0.702 |
| LTMAPYSSVSV [FAM81A_Y24_L29V] | 0.783 | 3.6 | 3.26 | 0.527 | 0.653 | 1.07 | 0.933 | 1.08 | 0.899 | 0.724 | 1.05 | 0.683 | 0.575 | 0.811 | 9.11 | 0.531 |
| LTRDIYKNDFF [ROS1_Y2110_A2106T_YF] | 1.48 | 0.731 | 0.395 | 0.723 | 1.05 | 0.475 | 0.79 | 1.07 | 0.963 | 0.717 | 0.974 | 0.683 | 0.836 | 0.673 | 0.937 | 0.495 |
| LTYHMYADPNF [SOS1_Y618] | 0.955 | 1.28 | 6.8 | 5.2 | 4.45 | 8.75 | 2.66 | 1.88 | 3.01 | 4.13 | 2.15 | 4.48 | 6.26 | 7.02 | 1.09 | 6.29 |
| LVLIKYLPEWT [PSEN1_Y240_F237L] | 2.06 | 1.99 | 1.21 | 0.56 | 0.547 | 0.463 | 1.44 | 1.43 | 1.08 | 0.569 | 1.19 | 0.827 | 0.501 | 1.07 | 0.597 | 0.611 |
| LYNQDYPIHCV [GATM_Y227_S231C] | 0.902 | 0.689 | 0.638 | 0.463 | 2.66 | 0.558 | 0.754 | 0.954 | 1.64 | 0.767 | 0.811 | 0.614 | 0.639 | 0.625 | 0.632 | 0.592 |
| MAFDRYVAVCA [OR52J3_Y125] | 0.746 | 0.647 | 0.663 | 0.522 | 0.519 | 0.458 | 0.995 | 1.08 | 0.582 | 0.537 | 0.845 | 0.649 | 0.438 | 0.779 | 0.468 | 0.7 |
| MCDKEYYSVHN [MET_Y1234_Y1230C] | 1.13 | 0.908 | 1.16 | 0.478 | 5.1 | 1.02 | 1.31 | 0.862 | 3.33 | 0.734 | 1.79 | 0.625 | 0.684 | 0.566 | 0.594 | 0.865 |
